Data: article PMC10397247
Read-outs that look alike come from different tables or passages of the source. One block for each binder: values may come before it.

Columns and labels:
Assay in all cases: two-hybrid library CCmax;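 note: natural log of median RNA to DNA barcode read ratio; higher means stronger binding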
4H3056-AA = biological target: T1, 4H3056-AA; conditions: mean of both orientations
T1 chain: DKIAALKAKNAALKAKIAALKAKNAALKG

4H406-AA = biological target: T2, 4H406-AA; conditions: mean of both orientations
T2 chain: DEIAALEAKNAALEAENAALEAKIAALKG

4H340-AA = biological target: T3, 4H340-AA; conditions: mean of both orientations
T3 chain: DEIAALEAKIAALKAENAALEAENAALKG

4H963-AA = biological target: T4, 4H963-AA; conditions: mean of both orientations
T4 chain: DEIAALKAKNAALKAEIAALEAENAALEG

4H2774-AA = biological target: T5, 4H2774-AA
T5 chain: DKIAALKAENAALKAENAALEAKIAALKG

4H3162-AA = biological target: T6, 4H3162-AA; conditions: mean of both orientations
T6 chain: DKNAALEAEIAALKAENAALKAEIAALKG

4H384-AA = biological target: T7, 4H384-AA; conditions: mean of both orientations
T7 chain: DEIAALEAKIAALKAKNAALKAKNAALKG

4H2620-AA = biological target: T8, 4H2620-AA; conditions: mean of both orientations
T8 chain: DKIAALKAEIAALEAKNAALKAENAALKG

4H2907-AA = biological target: T9, 4H2907-AA; conditions: mean of both orientations
T9 chain: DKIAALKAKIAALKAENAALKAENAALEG

4H3631-AA = biological target: T10, 4H3631-AA; conditions: mean of both orientations
T10 chain: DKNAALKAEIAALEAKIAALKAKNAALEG

4H3413-AA = biological target: T11, 4H3413-AA; conditions: mean of both orientations
T11 chain: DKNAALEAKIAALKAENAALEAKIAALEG

4H3340-AA = biological target: T12, 4H3340-AA; conditions: mean of both orientations
T12 chain: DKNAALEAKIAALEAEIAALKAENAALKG

4H3718-AA = biological target: T13, 4H3718-AA; conditions: mean of both orientations
T13 chain: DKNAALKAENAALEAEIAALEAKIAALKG

4H688-AA = biological target: T14, 4H688-AA; conditions: mean of both orientations
T14 chain: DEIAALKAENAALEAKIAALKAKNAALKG

4H3493-AA = biological target: T15, 4H3493-AA; conditions: mean of both orientations
T15 chain: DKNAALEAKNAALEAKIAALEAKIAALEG

4H2611-AA = biological target: T16, 4H2611-AA
T16 chain: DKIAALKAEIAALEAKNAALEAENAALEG

4H3606-AA = biological target: T17, 4H3606-AA; conditions: mean of both orientations
T17 chain: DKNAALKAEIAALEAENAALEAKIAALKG

4H3001-AA = biological target: T18, 4H3001-AA; conditions: mean of both orientations
T18 chain: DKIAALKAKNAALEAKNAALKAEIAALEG

4H3588-AA = biological target: T19, 4H3588-AA; conditions: mean of both orientations
T19 chain: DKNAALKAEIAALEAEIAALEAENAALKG

4H982-AA = biological target: T20, 4H982-AA; conditions: mean of both orientations
T20 chain: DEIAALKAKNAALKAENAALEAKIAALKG

4H3378-AA = biological target: T21, 4H3378-AA; conditions: mean of both orientations
T21 chain: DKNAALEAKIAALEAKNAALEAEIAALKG

4H3381-AA = biological target: T22, 4H3381-AA; conditions: mean of both orientations
T22 chain: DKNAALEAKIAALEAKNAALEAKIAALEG

4H3865-AA = biological target: T23, 4H3865-AA
T23 chain: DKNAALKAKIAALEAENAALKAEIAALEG

4H2648-AA = biological target: T24, 4H2648-AA; conditions: mean of both orientations
T24 chain: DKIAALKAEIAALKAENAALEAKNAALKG

4H376-AA = biological target: T25, 4H376-AA; conditions: mean of both orientations
T25 chain: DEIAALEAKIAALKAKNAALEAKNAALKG

4H347-AA = biological target: T26, 4H347-AA; conditions: mean of both orientations
T26 chain: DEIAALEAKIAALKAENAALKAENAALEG

4H32-AA = biological target: T27, 4H32-AA; conditions: mean of both orientations
T27 chain: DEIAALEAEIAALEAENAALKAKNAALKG

4H3697-AA = biological target: T28, 4H3697-AA; conditions: mean of both orientations
T28 chain: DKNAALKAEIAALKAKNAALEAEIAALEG

4H697-AA = biological target: T29, 4H697-AA
T29 chain: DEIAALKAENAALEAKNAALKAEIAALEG

4H3133-AA = biological target: T30, 4H3133-AA; conditions: mean of both orientations
T30 chain: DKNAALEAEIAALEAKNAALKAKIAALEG

4H2931-AA = biological target: T31, 4H2931-AA; conditions: mean of both orientations
T31 chain: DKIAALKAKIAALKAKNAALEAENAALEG

4H3782-AA = biological target: T32, 4H3782-AA; conditions: mean of both orientations
T32 chain: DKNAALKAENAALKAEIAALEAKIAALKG

4H3073-AA = biological target: T33, 4H3073-AA; conditions: mean of both orientations
T33 chain: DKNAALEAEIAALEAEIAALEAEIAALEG

4H3015-AA = biological target: T34, 4H3015-AA; conditions: mean of both orientations
T34 chain: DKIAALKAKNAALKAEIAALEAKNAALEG

4H446-AA = biological target: T35, 4H446-AA; conditions: mean of both orientations
T35 chain: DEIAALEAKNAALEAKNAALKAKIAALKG

4H3049-AA = biological target: T36, 4H3049-AA; conditions: mean of both orientations
T36 chain: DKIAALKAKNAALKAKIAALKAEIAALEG

4H3629-AA = biological target: T37, 4H3629-AA; conditions: mean of both orientations
T37 chain: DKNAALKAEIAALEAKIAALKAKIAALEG

4H3414-AA = biological target: T38, 4H3414-AA; conditions: mean of both orientations
T38 chain: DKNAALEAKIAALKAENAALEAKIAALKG

4H3777-AA = biological target: T39, 4H3777-AA; conditions: mean of both orientations
T39 chain: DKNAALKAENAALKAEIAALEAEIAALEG

4H3915-AA = biological target: T40, 4H3915-AA; conditions: mean of both orientations
T40 chain: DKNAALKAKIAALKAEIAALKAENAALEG

4H3595-AA = biological target: T41, 4H3595-AA; conditions: mean of both orientations
T41 chain: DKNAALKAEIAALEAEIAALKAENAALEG

4H341-AA = biological target: T42, 4H341-AA; conditions: mean of both orientations
T42 chain: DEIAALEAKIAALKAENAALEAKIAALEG

4H3619-AA = biological target: T43, 4H3619-AA; conditions: mean of both orientations
T43 chain: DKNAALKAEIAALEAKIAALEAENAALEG

4H324-AA = biological target: T44, 4H324-AA; conditions: mean of both orientations
T44 chain: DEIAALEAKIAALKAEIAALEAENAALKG

4H432-AA = biological target: T45, 4H432-AA; conditions: mean of both orientations
T45 chain: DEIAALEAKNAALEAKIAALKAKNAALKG

4H2903-AA = biological target: T46, 4H2903-AA; conditions: mean of both orientations
T46 chain: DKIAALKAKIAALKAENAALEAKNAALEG

4H2961-AA = biological target: T47, 4H2961-AA; conditions: mean of both orientations
T47 chain: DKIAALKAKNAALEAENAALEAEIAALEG

GCN2_T = biological target: GCN2_T
4H56-AA = biological target: T48, 4H56-AA; conditions: mean of both orientations
T48 chain: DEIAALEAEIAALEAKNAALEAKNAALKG

4H_GCN4 = biological target: 4H_GCN4
4H3094-AA = biological target: T49, 4H3094-AA; conditions: mean of both orientations
T49 chain: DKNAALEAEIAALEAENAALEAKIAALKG

4H63-AA = biological target: T50, 4H63-AA; conditions: mean of both orientations
T50 chain: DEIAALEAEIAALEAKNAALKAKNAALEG

4H3449-AA = biological target: T51, 4H3449-AA; conditions: mean of both orientations
T51 chain: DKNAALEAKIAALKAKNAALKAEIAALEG

4H483-AA = biological target: T52, 4H483-AA; conditions: mean of both orientations
T52 chain: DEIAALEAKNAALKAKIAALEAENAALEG

4H2947-AA = biological target: T53, 4H2947-AA; conditions: mean of both orientations
T53 chain: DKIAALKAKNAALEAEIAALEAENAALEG

4H3939-AA = biological target: T54, 4H3939-AA; conditions: mean of both orientations
T54 chain: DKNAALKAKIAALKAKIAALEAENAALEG

4H3438-AA = biological target: T55, 4H3438-AA; conditions: mean of both orientations
T55 chain: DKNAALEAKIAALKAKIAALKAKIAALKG

4H452-AA = biological target: T56, 4H452-AA; conditions: mean of both orientations
T56 chain: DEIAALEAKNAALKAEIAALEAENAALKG

4H3974-AA = biological target: T57, 4H3974-AA; conditions: mean of both orientations
T57 chain: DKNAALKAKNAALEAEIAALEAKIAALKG

4H3969-AA = biological target: T58, 4H3969-AA; conditions: mean of both orientations
T58 chain: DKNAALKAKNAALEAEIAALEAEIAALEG

4H3129-AA = biological target: T59, 4H3129-AA; conditions: mean of both orientations
T59 chain: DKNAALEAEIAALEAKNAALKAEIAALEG

4H464-AA = biological target: T60, 4H464-AA; conditions: mean of both orientations
T60 chain: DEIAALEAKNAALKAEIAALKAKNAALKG

4H_APH = biological target: T61, 4H_APH; conditions: mean of both orientations
T61 chain: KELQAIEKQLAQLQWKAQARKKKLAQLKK

4H_BCR = biological target: T62, 4H_BCR; conditions: mean of both orientations
T62 chain: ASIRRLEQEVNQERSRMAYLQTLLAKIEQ

4H380-AA = biological target: T63, 4H380-AA; conditions: mean of both orientations
T63 chain: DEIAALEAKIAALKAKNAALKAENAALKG

Chain of 4H_GCN4 (chain, as listed by the source): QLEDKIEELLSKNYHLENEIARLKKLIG

interaction score (4H3056-AA): -1.57 | interaction score (4H406-AA): -1.29 | interaction score (4H340-AA): 1.81 | interaction score (4H963-AA): -1.66 | interaction score (4H2774-AA; mean of both orientations): -1.54 | interaction score (4H3162-AA): -1.57 | interaction score (4H384-AA): 2.04 | interaction score (4H2620-AA): 0.167 | interaction score (4H2907-AA): -1.28 | interaction score (4H3631-AA): -0.311 | interaction score (4H3413-AA): -1.32 | interaction score (4H3340-AA): -1.49 | interaction score (4H3718-AA): -0.987 | interaction score (4H688-AA): -1.66 | interaction score (4H3493-AA): -1.87 | interaction score (4H2611-AA): -1.29 | interaction score (4H3606-AA): -1.56 | interaction score (4H3001-AA): -1.69 | interaction score (4H3588-AA): -1.55 | interaction score (4H982-AA): -1.45 | interaction score (4H3378-AA): -2.55 | interaction score (4H3381-AA): -1.73 | interaction score (4H3865-AA): -1.39 | interaction score (4H2648-AA): 1.2 | interaction score (4H376-AA): 1.87 | interaction score (4H347-AA): -0.637 | interaction score (4H32-AA): 1.56 | interaction score (4H3697-AA): -2.02 | interaction score (4H697-AA): -2.17 | interaction score (4H3133-AA): -1.77
Binder: DKIAALKAEIAALEAKNAALEAENAALEG [4H2611-AA]

interaction score (4H2931-AA): -1.98 | interaction score (4H3782-AA): -1.14 | interaction score (4H3073-AA): -1.43 | interaction score (4H3015-AA): -1.48 | interaction score (4H446-AA): 1.28 | interaction score (4H3049-AA): 1.59 | interaction score (4H406-AA): -0.207 | interaction score (4H3629-AA): -1.34 | interaction score (4H3414-AA): -1.5 | interaction score (4H3777-AA): -0.668 | interaction score (4H3915-AA): -1.36 | interaction score (4H3595-AA): -1.57 | interaction score (4H963-AA): -0.529 | interaction score (4H341-AA): 0.103 | interaction score (4H2774-AA): 1.65 | interaction score (4H3619-AA): -1.75 | interaction score (4H3340-AA): -1.59 | interaction score (4H324-AA): -1.75 | interaction score (4H432-AA): -1.57 | interaction score (4H2903-AA): -1.73 | interaction score (4H688-AA): -0.923 | interaction score (4H2961-AA): -0.737 | interaction score (GCN2_T): -1.68 | interaction score (4H3493-AA): -1.56 | interaction score (4H56-AA): -1.47 | interaction score (4H3001-AA): 0.364 | interaction score (4H_GCN4): -2.24 | interaction score (4H3094-AA): -0.282 | interaction score (4H63-AA): -1.37 | interaction score (4H3449-AA): -0.756 | interaction score (4H483-AA): -1.21 | interaction score (4H2947-AA): -1.7 | interaction score (4H3939-AA): -1.9 | interaction score (4H3381-AA): -1.61 | interaction score (4H3438-AA): -1.63 | interaction score (4H452-AA): -0.902 | interaction score (4H3974-AA): -0.913 | interaction score (4H3969-AA): -1.72 | interaction score (4H376-AA): -2.64 | interaction score (4H347-AA): -0.921 | interaction score (4H3129-AA): -0.715 | interaction score (4H464-AA): -1.18 | interaction score (4H_APH): -1.61 | interaction score (4H_BCR): -0.289 | interaction score (4H380-AA): -1.68
Binder: DKIAALKAENAALKAENAALEAKIAALKG [4H2774-AA]
